# Measured values: paper PMC10449848, “Structural basis of lipid-droplet localization of 17-beta-hydroxysteroid dehydrogenase 13” (Nature Communications, 2023)
# Positions count from the first letter of the chain named. Names and notes keep the numbering of the source. Values joined by “and” are separate entries in the source; they are usually repeats but may differ in a detail not shown here. Identical values can stand only once.
# T1: human HSD17B11 (Homo sapiens, UniProt Q8NBQ5)
# T1 construct: human HSD17B11 (residues 2-300, NP_057329.3); 10x His (N); TEV protease site (N); made in house; host or cells: Sf9 (baculovirus)
# T1 sequence (Q8NBQ5 2-300): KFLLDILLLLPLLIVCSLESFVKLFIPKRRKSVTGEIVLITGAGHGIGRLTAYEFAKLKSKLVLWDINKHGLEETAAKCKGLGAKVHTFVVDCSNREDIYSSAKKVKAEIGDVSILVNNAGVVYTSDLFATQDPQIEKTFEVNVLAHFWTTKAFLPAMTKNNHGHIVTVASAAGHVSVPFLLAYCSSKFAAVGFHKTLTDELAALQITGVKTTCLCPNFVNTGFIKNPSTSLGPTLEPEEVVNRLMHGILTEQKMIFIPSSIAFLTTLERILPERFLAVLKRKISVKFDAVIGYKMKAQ
# T2: human HSD17B13 (Homo sapiens, UniProt Q7Z5P4)
# T2 construct: human HSD17B13 (residues 2-300, NP_835236.2); 10x His (N); TEV protease site (N); made in house; host or cells: Sf9 (baculovirus)
# T2 sequence (Q7Z5P4 2-300): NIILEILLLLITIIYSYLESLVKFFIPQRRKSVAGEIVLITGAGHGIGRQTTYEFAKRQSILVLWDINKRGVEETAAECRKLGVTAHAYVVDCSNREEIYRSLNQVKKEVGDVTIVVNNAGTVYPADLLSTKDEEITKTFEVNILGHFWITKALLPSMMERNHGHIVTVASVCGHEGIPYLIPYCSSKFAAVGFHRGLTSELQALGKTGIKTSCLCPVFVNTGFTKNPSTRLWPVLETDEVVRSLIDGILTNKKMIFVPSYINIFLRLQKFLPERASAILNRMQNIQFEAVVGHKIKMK
# B1: dog wild-type HSD17B13 (hydroxysteroid 17-beta-dehydrogenase 13) (enzyme, UniProt A0A8C0PP93 1-300, looked up)
# chain: MNIILDLLLLLLTIIYSYLEALVKVFFPRKRKSVAGEIVLITGAGHGIGRWTAYEFAKQKSRLVLWDINKHGVEETAAECRKLGATVHTFVVDCGNREDIYNSVKQVKKEVGDVTILVNNAGTVYPADLLSTKDEEITKTFEINILGHFWITKALLPSMIKRNHGHIVTVASVCGHGVIPYLIPYCSSKFAAVGFHRALTLELQTLGITGIKTSCLCPVFVNTGFTKNPSTRLWPILETDTVARSLIDGILTNKKMIFVPSYYNIYLILDKFLPERALAAINHLQNIQFEAVIGHKTRMK
# notes: HSD17B13, dog, AA1-300 of XP_038300006.1; Crystallised with NAD+ and compound 1; the apo (NAD+ only) crystals were made by soaking compound 1 out; It is held in two of the entries PDB 8G84, 8G89, 8G93 and 8G9V; also called Dog WT; dog WT HSD17B13; source: Sf9 (baculovirus), solubilised from membranes with C12E8, purified (NiNTA, SEC)
# B2: dog mutant HSD17B13 (G177E/V178G/T205A/I293V) (enzyme, UniProt A0A8C0PP93 1-300, looked up)
# chain: B1 chain with G177E, V178G, T205A, I293V
# notes: HSD17B13, dog, AA1-300 of XP_038300006.1, with four residues at the compound 1 site changed to the human ones; It is held in one of the entries PDB 8G84, 8G89, 8G93 and 8G9V; also called dog quadruple mutant; mutated dog HSD17B13; source: Sf9 (baculovirus), solubilised from membranes with C12E8, purified (NiNTA, SEC)
# Experiments:
# [1] = biological target: human mutant HSD17B13 (Q60K/I62R/R71H/E161K) (human) (UniProt Q7Z5P4); assay: crystal structure; human mutant HSD17B13 with 1 mM NAD+, 1 mM compound 2 and 0.5% β-octyl-glucoside; 25% PEG3350, 0.1 M Bis-Tris pH 5.5, 0.2 M Li2SO4; room temperature
# human HSD17B11 = biological target: T1, human HSD17B11; assay: Thermal shift assay (static light scattering, Tagg), human HSD17B11; format: binding; details: Fig. 6d, 500 μM NAD+
# From the text: Because of the low enzymatic activities of dog wild-type HSD17B13 (Fig. 6a) and HSD17B11 with β-estradiol, it was difficult to measure compound inhibition of these proteins in a biochemical assay and we instead utilized direct binding methods to compare compounds interaction with different proteins. To understand ligand binding, we tested several approaches such as surface plasmon resonance and isothermal calorimetry. Like many membrane/detergent-associated proteins, however, these methods were not amenable for HSD17B13. We next turned to thermal shift assays (TSA) for comparing ligand binding affinities. TSA measures the changes in the thermal denaturation temperature of a protein under different conditions such as the presence compound, changes in buffer conditions, or sequence mutations. There are various readouts including intrinsic fluorescence or light scattering signals. We chose the static light scattering methods to detect the temperatures at which our proteins start to aggregate (Tagg), which are more suitable for membrane proteins that require detergent micelles for stability. Given that in theory[51] and in practice Tagg continues to increase with concentration of ligands far above their IC50s, we used high cofactor and inhibitor concentrations in the TSA experiments to maximize the ligand binding signal.
# (§1) TSA studies were run on the UNit instrument (Unchained Labs, CA, USA). Experiments were run in either 25 mM sodium phosphate pH 7, 150 mM NaCl, 10% glycerol, 1 mM TCEP, 0.05% DDM, + different cofactors (NAD^+, NADH, NADP, NADPH; MilliporeSigma) or 25 mM HEPES pH 7.2, 300 mM NaCl, 0.5 mM TCEP, 0.05% DDM, 10% glycerol, ±500 µM NAD^+, and ±100 µM compound 1 (from 2 mM DMSO stock) or DMSO or 50 mM Hepes pH 7.5, 300 mM NaCl, 0.5 mM TCEP, 0.05% DDM, 500 µM NAD^+, ± 50 µM compounds (from 2 mM stock) or DMSO. Protein aggregation was measured by static light scattering at 266 and 473 nm with a 1 °C/sec ramp rate from 20-80 °C. The data was processed using the UNcle software (Unchained Labs, CA, USA), and temperatures at which the protein started aggregation were recorded as Tagg. Reported Tagg and analysis were based on measurements at 266 nm unless otherwise indicated. The protein concentration used was 10.4 μM.
# human HSD17B13 = biological target: T2, human HSD17B13; assay: Thermal shift assay (static light scattering, Tagg), human HSD17B13; format: binding; details: Fig. 6c; 500 μM NAD+ alone, no compound
# From the text: To understand ligand binding, we tested several approaches such as surface plasmon resonance and isothermal calorimetry. […] We next turned to thermal shift assays (TSA) for comparing ligand binding affinities. TSA measures the changes in the thermal denaturation temperature of a protein under different conditions such as the presence compound, changes in buffer conditions, or sequence mutations. There are various readouts including intrinsic fluorescence or light scattering signals. We chose the static light scattering methods to detect the temperatures at which our proteins start to aggregate (Tagg), which are more suitable for membrane proteins that require detergent micelles for stability.
# as §1, with “indicated.” for “indicated. The protein concentration used was 10.4 μM.”
# [2] = biological target: the molecule itself; assay: crystal structure; dog HSD17B13 at 12 mg/ml with 1 mM NAD+, 1 mM compound 1 and 0.125% β-octyl-glucoside; 30% PEG3350, 0.2 M ammonium chloride; room temperature; apo crystals by soaking with buffer containing NAD+ only
molecule,measurement,setting,value
human mutant HSD17B13 (Q60K/I62R/R71H/E161K) (from UniProt Q7Z5P4-1 20-300) (enzyme),stoichiometry N,[1],2
Cc1ccc(S(=O)(=O)c2cc(C)cc(S(=O)(=O)Nc3ccc(C(=O)O)cc3)c2C)cc1 [Compound 2],effect on protein stability in TSA,human HSD17B11,neither 1 nor 2 showed an effect on protein stability
same,Tagg,human HSD17B11; 50 µM compound,40.37 °C and 38.02 °C and 40.65 °C and 41.03 °C and 39.22 °C and 40.82 °C and 39.77 °C and 38.1 °C
"NC(=O)c1ccc[n+]([C@@H]2O[C@H](COP(=O)([O-])OP(=O)(O)OC[C@H]3O[C@@H](n4cnc5c(N)ncnc54)[C@H](O)[C@@H]3O)[C@@H](O)[C@H]2O)c1 [NAD, nicotinamide adenine dinucleotide]","Tagg, individual measurements",human HSD17B13,43.6 °C (2×) and 38.9 °C and 40.5 °C and 42 °C and 41.7 °C (2×) and 41 °C
B1,stoichiometry N,[2],2
B2,stoichiometry N,[2],2
